Test [1] addresses T1, human GLP-1 receptor (human, UniProt P43220 24-463).
T1 construct: whole, on cells; also called hGLP-1R; human glucagon-like peptide-1 receptor
As to the kind of experiment: SPA competition vs [125I]-GLP-1, hGLP-1R membranes. The gist of the method:
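Competition binding in 25 mM HEPES pH 7.4, 2.5 mM CaCl₂, 1 mM MgCl₂, 0.1% bacitracin, 0.003% TWEEN-20, EDTA-free protease inhibitors. IC₅₀ from four-parameter nonlinear fit; Kᵢ given as geometric mean ± SEM, n = independent replicates on different days.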

Test [2] addresses T2, human GIP receptor (human, UniProt P48546 22-466).
T2 construct: whole, on cells; also called hGIPR; human glucose-dependent insulinotropic polypeptide receptor
T2 sequence (looked up): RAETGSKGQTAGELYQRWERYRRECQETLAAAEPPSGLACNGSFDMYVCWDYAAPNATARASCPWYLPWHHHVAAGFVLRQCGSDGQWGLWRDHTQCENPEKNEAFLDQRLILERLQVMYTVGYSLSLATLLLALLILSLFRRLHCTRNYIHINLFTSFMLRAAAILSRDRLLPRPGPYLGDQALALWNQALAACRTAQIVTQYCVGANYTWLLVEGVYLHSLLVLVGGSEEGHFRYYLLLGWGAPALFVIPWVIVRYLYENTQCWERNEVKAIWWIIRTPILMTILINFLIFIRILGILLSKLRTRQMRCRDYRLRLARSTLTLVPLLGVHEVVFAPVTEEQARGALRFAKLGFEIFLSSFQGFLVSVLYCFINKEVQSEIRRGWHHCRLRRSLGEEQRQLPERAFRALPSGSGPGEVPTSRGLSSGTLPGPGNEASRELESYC
As to the kind of experiment: SPA competition vs [125I]-GIP, hGIPR membranes.

The target of test [3] is T3, human glucagon receptor (human, UniProt P47871 26-477).
T3 construct: whole, on cells; also called hGCGR; hGcgR
As to the kind of experiment: SPA competition vs [125I]-Gcg, hGcgR membranes.

Residue numbers refer to the chain shown, from its start.

T3 sequence (P47871 26-477): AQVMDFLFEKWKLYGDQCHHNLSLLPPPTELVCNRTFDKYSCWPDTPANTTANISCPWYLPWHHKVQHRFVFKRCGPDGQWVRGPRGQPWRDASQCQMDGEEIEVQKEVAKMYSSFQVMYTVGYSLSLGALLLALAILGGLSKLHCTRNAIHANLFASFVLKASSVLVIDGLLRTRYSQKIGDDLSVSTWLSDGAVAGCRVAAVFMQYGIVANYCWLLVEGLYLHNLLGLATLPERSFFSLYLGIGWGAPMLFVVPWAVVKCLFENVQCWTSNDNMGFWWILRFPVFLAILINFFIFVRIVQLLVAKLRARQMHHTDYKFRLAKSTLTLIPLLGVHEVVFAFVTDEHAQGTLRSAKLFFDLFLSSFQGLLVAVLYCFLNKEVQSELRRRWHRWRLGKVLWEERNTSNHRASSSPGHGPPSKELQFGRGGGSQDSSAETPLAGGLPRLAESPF

B1: Y-Aib-EGT-αMeF(2F)-TSD-4Pal-SI-αMeL-LD-Orn-K((2-[2-(2-Amino-ethoxy)-ethoxy]-acetyl)2-(10-(4-carboxyphenoxy)decanoyl))AQ-Aib-EFI-(D-Glu)-αMeY-LIEGGK((2-[2-(2-Ami … (peptide)
peptide: YXEGTXTSDXSIXLDXKAQXEFIXXLIEGGKSSGAPPPS
modifications: Aib2, αMeF(2F)6, 4Pal10, αMeL13, Orn16, K17(Z1), Aib20, D-Glu24, αMeY25, K31(Z1), C-term NH2; Z1=AEEA2-(10-(4-carboxyphenoxy)decanoyl)
For orientation: Ki means the equilibrium dissociation constant of an inhibitor or competing ligand from its target. The low end stands for tighter binding, the high end for weaker binding. With B1, the Ki in test [1] came out at 0.681 nM; in test [2], 0.0489 nM; in test [3] it was 424 nM.

B2: Y-Aib-EGT-αMeF(2F)-TSD-4Pal-SI-αMeL-LD-Orn-K((2-[2-(2-Amino-ethoxy)-ethoxy]-acetyl)-(γ-Glu)-CO-(CH2)12-CO2H)AQ-Aib-EFI-(D-Glu)-αMeY-LIEGGK((2-[2-(2-Amino-ethoxy … (peptide)
peptide: B1 peptide
modifications: Aib2, αMeF(2F)6, 4Pal10, αMeL13, Orn16, K17(Z1), Aib20, D-Glu24, αMeY25, K31(Z1), C-term NH2; Z1=AEEA-(γ-Glu)-CO-(CH2)12-CO2H
Consider B2, for which the Ki in test [1] worked out at 1.06 nM; in test [2], 0.0508 nM; in test [3], 660 nM.

B3: Y-Aib-EGT-αMeF(2F)-TSD-4Pal-Aib-I-αMeL-LD-Orn-QAQ-Aib-Orn-FIK((2-[2-(2-Amino-ethoxy)-ethoxy]-acetyl)-Ahx-(γ-Glu)-CO-(CH2)12-CO2)-αMeY-LIK((2-[2-(2-Amino-ethoxy) … (peptide)
peptide: YXEGTXTSDXXIXLDXQAQXXFIKXLIKGGPSSGAPPPS
modifications: Aib2, αMeF(2F)6, 4Pal10, Aib11, αMeL13, Orn16, Aib20, Orn21, K24(Z1), αMeY25, K28(Z1), C-term NH2; Z1=AEEA-Ahx-(γ-Glu)-CO-(CH2)12-CO2 (so in the source)
As for B3, the results for the inhibitory constant (Ki) in test [1], in test [2] and in test [3] were 0.201 nM, 0.0133 nM and 243 nM, respectively.

B4: Y-Aib-EGT-αMeF(2F)-TSD-4Pal-Aib-I-αMeL-LD-Orn-QAQ-Aib-Orn-FIK(Ahx-(2-[2-(2-Amino-ethoxy)-ethoxy]-acetyl)-(γ-Glu)-CO-(CH2)12-CO2)-αMeY-LIK(Ahx-(2-[2-(2-Amino-eth … (peptide)
peptide: B3 peptide
modifications: Aib2, αMeF(2F)6, 4Pal10, Aib11, αMeL13, Orn16, Aib20, Orn21, K24(Z1), αMeY25, K28(Z1), C-term NH2; Z1=Ahx-AEEA-(γ-Glu)-CO-(CH2)12-CO2 (so in the source)
As for B4, the Ki was 0.234 nM in test [1], 0.0239 nM in test [2] and 258 nM in test [3].

B5: Y-Aib-EGT-αMeF(2F)-TSD-4Pal-Aib-I-αMeL-LD-Orn-QAQ-Aib-Orn-FIK((2-[2-(2-Amino-ethoxy)-ethoxy]-acetyl)2-(γ-Glu)2--(10-(4-carboxyphenoxy)decanoyl))-αMeY-LIK((2-[2- … (peptide)
peptide: B3 peptide
modifications: Aib2, αMeF(2F)6, 4Pal10, Aib11, αMeL13, Orn16, Aib20, Orn21, K24(Z1), αMeY25, K28(Z1), C-term NH2; Z1=AEEA2-(γ-Glu)2-(10-(4-carboxyphenoxy)decanoyl)
For B5, the results for the Ki in test [1], in test [2] and in test [3] were 0.189 nM, 0.0294 nM and 139 nM, respectively.

B6: Y-Aib-EGT-αMeF(2F)-TSD-4Pal-Aib-I-αMeL-LD-Orn-QAQ-Aib-Orn-FIK(((2-[2-(2-Amino-ethoxy)-ethoxy]-acetyl)-Trx-(γ-Glu)-(10-(4-carboxyphenoxy)decanoyl))-αMeY-LIK(((2- … (peptide)
peptide: B3 peptide
modifications: Aib2, αMeF(2F)6, 4Pal10, Aib11, αMeL13, Orn16, Aib20, Orn21, K24(Z1), αMeY25, K28(Z1), C-term NH2; Z1=AEEA-Trx-(γ-Glu)-(10-(4-carboxyphenoxy)decanoyl)
Regarding B6, the Ki came to 0.169 nM in test [1], 0.0319 nM in test [2] and 162 nM in test [3].

B7: Y-Aib-EGT-αMeF(2F)-TSD-4Pal-Aib-I-αMeL-LD-Orn-QAQ-Aib-Orn-FIK((2-[2-(2-Amino-ethoxy)-ethoxy]-acetyl)-Ahx-(γ-Glu)-(10-(4-carboxyphenoxy)decanoyl))-αMeY-LIK((2-[2 … (peptide)
peptide: B3 peptide
modifications: Aib2, αMeF(2F)6, 4Pal10, Aib11, αMeL13, Orn16, Aib20, Orn21, K24(Z1), αMeY25, K28(Z1), C-term NH2; Z1=AEEA-Ahx-(γ-Glu)-(10-(4-carboxyphenoxy)decanoyl)
Consider B7, for which the Ki was 0.123 nM in test [1], 0.013 nM in test [2] and 71.8 nM in test [3].

B8: Y-Aib-EGT-αMeF(2F)-TSD-4Pal-Aib-I-αMeL-LD-Orn-QAQ-Aib-Orn-FIK(((2-[2-(2-Amino-ethoxy)-ethoxy]-acetyl)2--Trx-(γ-Glu)-(10-(4-carboxyphenoxy)decanoyl))-αMeY-LIK((( … (peptide)
peptide: B3 peptide
modifications: Aib2, αMeF(2F)6, 4Pal10, Aib11, αMeL13, Orn16, Aib20, Orn21, K24(Z1), αMeY25, K28(Z1), C-term NH2; Z1=AEEA2-Trx-(γ-Glu)-(10-(4-carboxyphenoxy)decanoyl)
Consider B8, for which the results for the Ki in test [1], in test [2] and in test [3] were 0.197 nM, 0.0493 nM and 452 nM, respectively.

B9: Y-Aib-EGT-αMeF(2F)-TSD-4Pal-Aib-I-αMeL-LD-Orn-QAQ-Aib-Orn-FIK((2-[2-(2-Amino-ethoxy)-ethoxy]-acetyl)2-(γ-Glu)2-CO-(CH2)12-CO2H)-αMeY-LIK((2-[2-(2-Amino-ethoxy)- … (peptide)
peptide: B3 peptide
modifications: Aib2, αMeF(2F)6, 4Pal10, Aib11, αMeL13, Orn16, Aib20, Orn21, K24(Z1), αMeY25, K28(Z1), C-term NH2; Z1=AEEA2-(γ-Glu)2-CO-(CH2)12-CO2H
B9: the Ki in test [1] stood at 0.343 nM; in test [2] it was 0.0427 nM; in test [3], 382 nM.

B10: Y-Aib-EGT-αMeF(2F)-TSD-4Pal-Aib-I-αMeL-LD-Orn-QAQ-Aib-Orn-FIK(PEG4-(γ-Glu)-(10-(4-carboxyphenoxy)decanoyl))-αMeY-LIK(PEG4-(γ-Glu)-(10-(4-carboxyphenoxy)decanoyl … (peptide)
peptide: B3 peptide
modifications: Aib2, αMeF(2F)6, 4Pal10, Aib11, αMeL13, Orn16, Aib20, Orn21, K24(Z1), αMeY25, K28(Z1), C-term NH2; Z1=PEG4-(γ-Glu)-(10-(4-carboxyphenoxy)decanoyl)
In the case of B10, the Ki was 0.14 nM in test [1], 0.01 nM in test [2] and 101 nM in test [3].

B11: Y-Aib-EGT-αMeF(2F)-TSD-4Pal-Aib-I-αMeL-LD-Orn-QAQ-Aib-Orn-FIK(Ahx-(2-[2-(2-Amino-ethoxy)-ethoxy]-acetyl)-(γ-Glu)-(10-(4-carboxyphenoxy)decanoyl))-αMeY-LIK(Ahx-( … (peptide)
peptide: B3 peptide
modifications: Aib2, αMeF(2F)6, 4Pal10, Aib11, αMeL13, Orn16, Aib20, Orn21, K24(Z1), αMeY25, K28(Z1), C-term NH2; Z1=Ahx-AEEA-(γ-Glu)-(10-(4-carboxyphenoxy)decanoyl)
For the molecule B11, the Ki is 0.243 nM in test [1], 0.0143 nM in test [2] and 60.1 nM in test [3].

B12: Y-Aib-EGT-αMeF(2F)-TSD-4Pal-Aib-I-αMeL-LD-Orn-QAQ-Aib-Orn-FIK((2-[2-(2-Amino-ethoxy)-ethoxy]-acetyl)-(γ-Glu)-(10-(4-carboxyphenoxy)decanoyl))-αMeY-LIK((2-[2-(2- … (peptide)
peptide: B3 peptide
modifications: Aib2, αMeF(2F)6, 4Pal10, Aib11, αMeL13, Orn16, Aib20, Orn21, K24(Z1), αMeY25, K28(Z1), C-term NH2; Z1=AEEA-(γ-Glu)-(10-(4-carboxyphenoxy)decanoyl)
As to B12, the inhibitory constant (Ki) came to 0.143 nM in test [1], 0.0183 nM in test [2] and 54.5 nM in test [3].

B13: Y-Aib-EGT-αMeF(2F)-TSD-4Pal-Aib-I-αMeL-LD-Orn-QAQ-Aib-Orn-FIK((2-[2-(2-Amino-ethoxy)-ethoxy]-acetyl)3-(γ-Glu)--(10-(4-carboxyphenoxy)decanoyl))-αMeY-LIK((2-[2-( … (peptide)
peptide: B3 peptide
modifications: Aib2, αMeF(2F)6, 4Pal10, Aib11, αMeL13, Orn16, Aib20, Orn21, K24(Z1), αMeY25, K28(Z1), C-term NH2; Z1=AEEA3-(γ-Glu)-(10-(4-carboxyphenoxy)decanoyl)
In the case of B13, the Ki in test [1] turned out to be 0.143 nM; in test [2], 0.0279 nM; in test [3] it was 268 nM.

B14: Y-Aib-EGT-αMeF(2F)-TSD-4Pal-Aib-I-αMeL-LD-Orn-QAQ-Aib-Orn-FIK(PEG5-(γ-Glu)-(10-(4-carboxyphenoxy)decanoyl))-αMeY-LIK(PEG5-(γ-Glu)-(10-(4-carboxyphenoxy)decanoyl … (peptide)
peptide: B3 peptide
modifications: Aib2, αMeF(2F)6, 4Pal10, Aib11, αMeL13, Orn16, Aib20, Orn21, K24(Z1), αMeY25, K28(Z1), C-term NH2; Z1=PEG5-(γ-Glu)-(10-(4-carboxyphenoxy)decanoyl)
For the molecule B14, the results for the inhibition constant Ki in test [1], in test [2] and in test [3] were 0.0847 nM, 0.0387 nM and 144 nM, respectively.

B15: Y-Aib-EGT-αMeF(2F)-TSD-4Pal-Aib-I-αMeL-LD-Orn-K(((2-[2-(2-Amino-ethoxy)-ethoxy]-acetyl)-Aoc-CO-(CH2)12-CO2H)AQ-Aib-EFI-(D-Glu)-αMeY-LIK(((2-[2-(2-Amino-ethoxy)- … (peptide)
peptide: B1 peptide with S11X, E28K, K31P
modifications: Aib2, αMeF(2F)6, 4Pal10, Aib11, αMeL13, Orn16, K17(Z1), Aib20, D-Glu24, αMeY25, K28(Z1), C-term NH2; Z1=AEEA-Aoc-CO-(CH2)12-CO2H
As for B15, the values for the Ki in test [1], in test [2] and in test [3] were 1.29 nM, 0.0464 nM and 304 nM, respectively.

For the origin of these results see patent publication US20230265151A1, “GIP/GLP1 CO-AGONIST COMPOUNDS” (priority 2020, published 2023).
